In US20070286859A1:

Molecular target: FcγRIIIa on human PBMCs expressing heterozygous V158/F158 FcγRIIIa (human) (UniProt P08637)
Test: cell-based or functional assay

FcγRIIIa on human PBMCs expressing heterozygous V158/F158 FcγRIIIa (human), sequence (P08637 17-254): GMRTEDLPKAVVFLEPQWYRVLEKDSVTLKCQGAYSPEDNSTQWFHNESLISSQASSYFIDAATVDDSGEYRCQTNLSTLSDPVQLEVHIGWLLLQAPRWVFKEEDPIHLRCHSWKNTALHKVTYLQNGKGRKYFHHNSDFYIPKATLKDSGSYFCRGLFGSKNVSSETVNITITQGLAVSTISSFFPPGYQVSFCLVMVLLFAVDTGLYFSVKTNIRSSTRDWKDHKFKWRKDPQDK

ADCC EC50	ADCC Fold WT	ADCC log(EC50)	Substance
3 ng/mL	3.3 fold	0.49	S239D/I332E alemtuzumab (antibody)
4 ng/mL		0.6	V264I/I332E alemtuzumab (antibody)
